Experimental data as given in IntAct's records for PubMed 23169619.

B1: Protein TIFY 7 (Arabidopsis thaliana (Mouse-ear cress)), Q8W4J8 (parent)
chain: MERDFLGLSDKQYLSNNVKHEVNDDAVEERGLSTKAAREWGKSKVFATSSFMPSSDFQEAKAFPGAYQWGSVSAANVFRRCQFGGAFQNATPLLLGGSVPLPTHPSLVPRVASSGSSPQLTIFYGGTISVFNDISPDKAQAIMLCAGNGLKGETGDSKPVREAERMYGKQIHNTAATSSSSATHTDNFSRCRDTPVAATNAMSMIESFNAAPRNMIPSVPQARKASLARFLEKRKERLMSAMPYKKMLLDLSTGESSGMNYSSTSPT
partner: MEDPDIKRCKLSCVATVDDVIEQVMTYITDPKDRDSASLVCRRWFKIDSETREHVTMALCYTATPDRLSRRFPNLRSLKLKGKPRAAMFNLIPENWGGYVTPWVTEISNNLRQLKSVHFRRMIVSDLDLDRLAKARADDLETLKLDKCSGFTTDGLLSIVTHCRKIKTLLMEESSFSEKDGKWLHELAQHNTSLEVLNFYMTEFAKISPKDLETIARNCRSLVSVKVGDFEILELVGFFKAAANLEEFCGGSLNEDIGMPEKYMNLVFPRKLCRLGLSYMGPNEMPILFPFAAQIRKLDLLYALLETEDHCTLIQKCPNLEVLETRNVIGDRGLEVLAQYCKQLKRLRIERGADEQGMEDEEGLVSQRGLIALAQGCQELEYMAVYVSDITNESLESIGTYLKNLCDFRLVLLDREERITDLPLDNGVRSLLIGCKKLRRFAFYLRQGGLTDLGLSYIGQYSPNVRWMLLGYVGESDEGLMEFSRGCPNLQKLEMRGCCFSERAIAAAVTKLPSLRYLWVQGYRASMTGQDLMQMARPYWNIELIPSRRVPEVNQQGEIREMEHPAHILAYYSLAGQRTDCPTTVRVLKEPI
B2: Protein TIFY 7 (Arabidopsis thaliana (Mouse-ear cress)), Q8W4J8 (parent)
chain: B1 chain

Variants of: B1
Conditions: with coi1_arath COI1, O04197

Variant	effect of a mutation on the interaction
MERDFLGLSDKQYLSNNVKHEVNDDAVEERGLSTKAAREWGKSKVFATSSFMPSSDFQEAKAFPGAYQWGSVSAANVFRRCQFGGAFQNATPLLLGGSVPLPTHPSLVPRVASSGSSPQLTIFYGGTISVFNDISPDKAQAIMLCAGNGLKGETGDSKPVREAERMYGKQIHNTAATSSSSATHTDNFSRCRDTPVAATNAMSMIESFNAAPRNMIPSVPQARKASLARFLEAAKERLMSAMPYKKMLLDLSTGESSGMNYSSTSPT [K233A;R234A]	disrupting interaction strength
MERDFLGLSDKQYLSNNVKHEVNDDAVEERGLSTKAAREWGKSKVFATSSFMPSSDFQEAKAFPGAYQWGSVSAANVFRRCQFGGAFQNATPLLLGGSVPLPTHPSLVPRVASSGSSPQLTIFYGGTISVFNDISPDKAQAIMLCAGNGLKGETGDSKPVREAERMYGKQIHNTAATSSSSATHTDNFSRCRDTPVAATNAMSMIESFNAAPRNMIPSVPQAAAASLARFLEKRKERLMSAMPYKKMLLDLSTGESSGMNYSSTSPT [R223A;K224A]	disrupting interaction strength
MERDFLGLSDKQYLSNNVKHEVNDDAVEERGLSTKAAREWGKSKVFATSSFMPSSDFQEAKAFPGAYQWGSVSAANVFRRCQFGGAFQNATPLLLGGSVPLPTHPSLVPRVASSGSSPQLTIFYGGTISVFNDISPDKAQAIMLCAGNGLKGETGDSKPVREAERMYGKQIHNTAATSSSSATHTDNFSRCRDTPVAATNAMSMIESFNAAPRNMIPSVPQARKASLARFLEAAAERLMSAMPYKKMLLDLSTGESSGMNYSSTSPT [K233A;R234A;K235A]	disrupting interaction strength
MERDFLGLSDKQYLSNNVKHEVNDDAVEERGLSTKAAREWGKSKVFATSSFMPSSDFQEAKAFPGAYQWGSVSAANVFRRCQFGGAFQNATPLLLGGSVPLPTHPSLVPRVASSGSSPQLTIFYGGTISVFNDISPDKAQAIMLCAGNGLKGETGDSKPVREAERMYGKQIHNTAATSSSSATHTDNFSRCRDTPVAATNAMSMIESFNAAPRNMIPSVPQARKASLARFLEKAKERLMSAMPYKKMLLDLSTGESSGMNYSSTSPT [R234A]	disrupting interaction strength

Variants of: B2
Conditions: with myc2_arath MYC2, Q39204
Sequence of myc2_arath MYC2, Q39204 (Q39204 whole entry): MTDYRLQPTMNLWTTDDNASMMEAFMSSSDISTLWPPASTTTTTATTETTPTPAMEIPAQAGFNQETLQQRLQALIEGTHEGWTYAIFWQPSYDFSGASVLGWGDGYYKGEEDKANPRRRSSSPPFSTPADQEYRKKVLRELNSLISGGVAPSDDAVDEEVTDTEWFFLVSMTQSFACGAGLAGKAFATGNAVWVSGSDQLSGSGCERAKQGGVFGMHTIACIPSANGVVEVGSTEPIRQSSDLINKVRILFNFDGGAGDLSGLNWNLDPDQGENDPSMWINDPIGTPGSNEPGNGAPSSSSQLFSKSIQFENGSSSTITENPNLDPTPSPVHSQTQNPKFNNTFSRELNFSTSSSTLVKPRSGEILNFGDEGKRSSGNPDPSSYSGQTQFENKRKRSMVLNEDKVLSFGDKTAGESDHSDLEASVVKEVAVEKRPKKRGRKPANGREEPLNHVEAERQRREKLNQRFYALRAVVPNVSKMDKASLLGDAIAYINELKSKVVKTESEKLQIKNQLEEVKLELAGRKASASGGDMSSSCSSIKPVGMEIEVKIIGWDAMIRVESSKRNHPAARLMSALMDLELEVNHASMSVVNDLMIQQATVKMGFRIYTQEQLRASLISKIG

Variant	effect of a mutation on the interaction
MERDFLGLSDKQYLSNNVKHEVNDDAVEERGLSTKAAREWGKSKVFATSSFMPSSDFQEAKAFPGAYQWGSVSAANVFRRCQFGGAFQNATPLLLGGSVPLPTHPSLVPRVASSGSSPQLTIFYGGTISVFNDISPDKAQAIMLCAGNGLKGETGDSKPVREAERMYGKQIHNTAATSSSSATHTDNFSRCRDTPVAATNAMSMIESFNAAPRNMIPSVPQARKASLARFLEAAKERLMSAMPYKKMLLDLSTGESSGMNYSSTSPT [K233A;R234A]	disrupting interaction strength
MERDFLGLSDKQYLSNNVKHEVNDDAVEERGLSTKAAREWGKSKVFATSSFMPSSDFQEAKAFPGAYQWGSVSAANVFRRCQFGGAFQNATPLLLGGSVPLPTHPSLVPRVASSGSSPQLTIFYGGTISVFNDISPDKAQAIMLCAGNGLKGETGDSKPVREAERMYGKQIHNTAATSSSSATHTDNFSRCRDTPVAATNAMSMIESFNAAPRNMIPSVPQARKASLARFLEKAKERLMSAMPYKKMLLDLSTGESSGMNYSSTSPT [R234A]	disrupting interaction strength
MERDFLGLSDKQYLSNNVKHEVNDDAVEERGLSTKAAREWGKSKVFATSSFMPSSDFQEAKAFPGAYQWGSVSAANVFRRCQFGGAFQNATPLLLGGSVPLPTHPSLVPRVASSGSSPQLTIFYGGTISVFNDISPDKAQAIMLCAGNGLKGETGDSKPVREAERMYGKQIHNTAATSSSSATHTDNFSRCRDTPVAATNAMSMIESFNAAPRNMIPSVPQARKASLARFLEAAAERLMSAMPYKKMLLDLSTGESSGMNYSSTSPT [K233A;R234A;K235A]	disrupting interaction strength
